Reference: CN104744590A

Tests used:
[1] = target: 重组血凝素蛋白 H1N1(A/Ohio/UR06-0091/2007) (Influenza A virus H1N1 (A/Ohio/UR06-0091/2007))
[2] = target: 重组血凝素蛋白 H2N2(A/Canada/720/2005) (Influenza A virus H2N2 (A/Canada/720/2005))
[3] = target: 重组血凝素蛋白 H1N1(A/New Caledonia/20/1999) (Influenza A virus H1N1 (A/New Caledonia/20/1999))
[4] = target: 重组血凝素蛋白 H6N1(A/Califomia/HKWF115/2007) (Influenza A virus H6N1 (California/HKWF115/2007 as printed))
[5] = target: 重组血凝素蛋白 H1N1(A/California/4/2009) (Influenza A virus H1N1 (A/California/4/2009))
[6] = target: 重组血凝素蛋白 H1N3(A/duck/NZL/160/1976) (Influenza A virus H1N3 (A/duck/NZL/160/1976))
[7] = target: 重组血凝素蛋白 H1N1(A/Puerto Rico/8/1934) (Influenza A virus H1N1 (A/Puerto Rico/8/1934)) (UniProt P03452)
[8] = target: 重组血凝素蛋白 H1N1(A/California/7/2009) (Influenza A virus H1N1 (A/California/7/2009))
[9] = target: 重组血凝素蛋白 H1N2(A/swine/Guangxi/13/2006) (Influenza A virus H1N2 (A/swine/Guangxi/13/2006))

B1: 抗甲型H1N1猪流感病毒血凝素蛋白鼠单克隆抗体 (antibody, V domains shown)
VH: EIQLQQTGPELVKPGAPVKISCKASGYSLTDYIILWVKQSHGKSLEWIGNINPYFGTTSYNLKFKDKATLTVDKSSSTAYMELNSLTSEDSAVYYCARNDNYAMDYWGQGTSVTVSS
VL: QIVLTQSPAIMSASLGERVTMTCTASSSVSSTYLHWYQQKPGSSPKLWIYSTSNLASGVPARFSGSGSGTSYSLTISSMEAEDAATYYCHQYHRSPYTFGGGTKLEIKR
**Q.** With B1 as the binder, how does the OD450nm值 [1] read?
**A.** Its OD450nm值 is 0.015 OD450nm.

**Q.** What about the OD450nm值 [2] of the same binder?
**A.** Its OD450nm值 is 0.002 OD450nm.

**Q.** What about the OD450nm值 [3] of the same binder?
**A.** The OD450nm值 was 0.001 OD450nm.

**Q.** And the OD450nm值 [4]?
**A.** The OD450nm值 was 0.003 OD450nm.

**Q.** What about the OD450nm值 [5] of the same binder?
**A.** Its OD450nm值 is 2.01 OD450nm.

**Q.** And the OD450nm值 [6]?
**A.** The OD450nm值 was 0.001 OD450nm.

**Q.** What about the OD450nm值 [7] of the same binder?
**A.** Its OD450nm值 is 0.005 OD450nm.

**Q.** And the OD450nm值 [8]?
**A.** The OD450nm值 was 1.88 OD450nm.

**Q.** And the OD450nm值 [9]?
**A.** Its OD450nm值 is 0.004 OD450nm.
